Laboratory results: patent US20130150287A1

Target: integrin overexpressed on cancer cells
Experiment: cell-based or functional assay

CDCRGDCFC [RGD peptide (…)]
reduction of cellular uptake of the recombinant protein particle by B16F10 cells after preincubation with 100-fold molar excess of RGD peptide: 40%
reduction of cellular uptake of the recombinant protein particle by B16F10 cells after preincubation with 200-fold molar excess of RGD peptide: 95%
reduction of cellular uptake of the recombinant protein particle by B16F10 cells after preincubation with 400-fold molar excess of RGD peptide: 95%
